What all share (assay): EMSA
Series [1] has as its target T1, O6-alkylguanine-DNA alkyltransferase (AGT, MGMT) (human, UniProt P16455 1-207).
For series [2], the target named is T1, O6-alkylguanine-DNA alkyltransferase …. The source holds these as a separate data set.
Series [3] shares this target. This is another data set of the same source.

Like-named read-outs stand apart in the source and are kept apart here.

T1 sequence (P16455 whole entry): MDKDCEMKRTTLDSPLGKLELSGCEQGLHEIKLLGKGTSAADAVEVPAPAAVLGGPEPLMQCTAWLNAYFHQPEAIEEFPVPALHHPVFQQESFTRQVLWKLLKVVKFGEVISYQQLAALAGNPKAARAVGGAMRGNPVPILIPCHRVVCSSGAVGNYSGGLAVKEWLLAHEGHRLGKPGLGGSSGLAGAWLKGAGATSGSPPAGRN

B1: duplex 16mer (A/B) (dsDNA)
DNA 1: GACTGACTGACTGACT
DNA 2: AGTCAGTCAGTCAGTC
For B1, the Ka in series [1] is 3.97 ± 0.02 log10 M-1; in series [2] it was 16900 M⁻¹; in series [3], 2.58e+06 M⁻¹.

For the origin of these results see article PMC2736636.
